Source: patent US20170267755A1 (SRI INTERNATIONAL, published 2017)

B1: Nb A1 (VHH)
VHH: HPGGSLRLSCAASGIDLSLYRMRWYRQAPGKERDLVALITDDGTSYYEDSVKGRFTITRDNPSNKVFLQMNSLKPEDTAVYYCNAETPLSPVNYWGQ
notes: Llama VHH made in the E. coli periplasm with a C-terminal His tag; also called G3A; G3a; not shown: C-terminal hexahistidine tag
B2: Nb C6 (VHH)
VHH: QAGGSLRLSCAPSGSIFGIRTMDWYRQAPGKERELVARITMDGRVFHADSVKGRFSGSRDGASNAVYLQMNSLKPDDTAVYYCRYSGLTSREDYWGP
notes: Llama VHH made in the E. coli periplasm with a C-terminal His tag; also called F10; not shown: C-terminal hexahistidine tag

Target: T1, human mesothelin expressed on the plasma membrane of cells (HeLa, OVCAR-3, SK-OV-3, A1847) (human, UniProt Q13421 296-598)
T1 construct: whole, on cells; GPI-linked cell-surface form on human cell lines and on A1847 spheroid sections and tumors; also called Msln
T1 sequence (Q13421 other isoform, or with tags, fused parts or gaps limits assumed): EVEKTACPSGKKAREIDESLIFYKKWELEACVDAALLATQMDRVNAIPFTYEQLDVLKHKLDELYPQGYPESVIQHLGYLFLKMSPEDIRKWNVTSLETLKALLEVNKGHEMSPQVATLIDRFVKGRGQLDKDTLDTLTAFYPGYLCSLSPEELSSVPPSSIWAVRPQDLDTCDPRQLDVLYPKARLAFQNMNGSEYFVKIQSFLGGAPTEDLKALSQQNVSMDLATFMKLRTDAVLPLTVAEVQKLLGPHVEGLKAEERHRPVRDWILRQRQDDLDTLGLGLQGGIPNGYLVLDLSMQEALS
Assay: flow cytometry on HeLa cells, chemically biotinylated Nb, PE-streptavidin, double-reciprocal fit
Method: In specific experimental embodiments, the affinity of the two Nbs, Nb A1 and Nb C6, can determined by flow cytometry using HeLa cells. Binding to HeLa cells can be detected using flow cytometry after incubation with various concentrations of biotinylated Nbs followed by PE-labeled streptavidin. KD values are determined by the equation KD=a *Fₘₐₓ in which “a” is the regression line and Fₘₐₓ is the maximum of fluorescence. […] In addition, the higher affinity and maximum mean fluorescence intensity (MFI) achieved with Nb A1 is consistent with its predominant representation in the phage display output and the larger fluorescence shift seen with flow cytometry.
Briefly, fifty μg of each Nb are biotinylated chemically using the EZ-Link Micro NHSPEO4-Biotinylation Kit. After incubation of mesothelin-positive HeLa cells (5×10⁵) with various concentrations of biotinylated Nbs for one hour at four degrees C. under shaking (nine hundred rpm), Nbs binding is detected by flow cytometry following incubation with (PE)-labeled streptavidin. The KD values are determined by the equation: […]

Row | Kd | Binder
1 | ~15 nM | B1
2 | 30 nM | B2
